From patent US20230212218A1 (NAVIGO PROTEINS, published 2023)
Where a chain is given by its changes, count along the chain named.

B1: CID213235 (designed binder)
chain: ADNKFSQSANLLAEAKKLSDAQRGLTEEQRNGFIQSLKDDTKRHPKMNKEQQNAFYEILHLPK
B2: CID210279 (designed binder)
chain: ADNKFSQSANLLAEAKKLNDAQGGLTEEQRNGFIQSLKDDTHPEDRQHNKEQQNAFYEILHLPK
B3: SEQ ID NO: 41 (CID208846) (designed binder)
chain: ADNKFSQSANLLAEAKKLNDAQGGITEEQRNGFIQSLKDDIGASPMNKEQQNAFYEILHLPK
B4: CID213246 (designed binder)
chain: B3 chain with I25L, I41V, G42R, A43R, S44V, P45G, M46S
B5: CID-213213 (designed binder)
chain: B3 chain with I25L, I41H, G42T, A43P, S44T, P45R, M46G
notes: not tied in the text
B6: CID213278 (designed binder)
chain: B3 chain with I25L, I41M, G42N, A43V, S44G, P45K, M46H
B7: CID213224 (designed binder)
chain: ADNKFSQSANLLAEAKKLNDAQNGLTEEQRNGFIQSLKDDVRTNGANKEQQNAFYEILHLPK
B8: CID-210234 (designed binder)
chain: B7 chain with N23G, V41A, R42S, T43E, N44K
notes: not tied in the text
B9: CID213215 (designed binder)
chain: B7 chain with N23G, T43K, N44L, A46P
B10: CID213191 (designed binder)
chain: B3 chain with I25L, I41G, G42T, A43E, S44G, P45V, M46H
B11: CID-210240 (designed binder)
chain: ADNKFSQSANLLAEAKKLNDAQGGLTEEQRNGFIQSLKDDPVLRGKPNKEQQNAFYEILHLPK
notes: not tied in the text
B12: CID-213276 (designed binder)
chain: ADNKFSQSANLLAEAKKLNDAQGGITEEQRNGFIQSLKDDAKANPEANKEQQNAFYEILHLPK
notes: not tied in the text
B13: CID213197 (designed binder)
chain: B12 chain with I25L, A41T, K42A, E46T
B14: CID210259 (designed binder)
chain: B12 chain with A43R, E46M, A47T
B15: SEQ ID NO: 42 (CID208847) (designed binder)
chain: B12 chain with I25L, A41V, K42P, N44G, P45V, E46A, A47N
B16: CID213333 (designed binder)
chain: B12 chain with A43T, E46G, A47N

Legend:
hIgG1-Fc [1] = target: T1, hIgG1-Fc (human, UniProt P01857-1 100-330 = IgG part, limits assumed); test: SPR, Biacore 3000, 25 C, Langmuir 1:1 model
T1 construct: domain: Fc; treated as the same molecule; also called IgG1 Fc region; hIgG-Fc
From the text: (§1) A CM5 sensor chip (GE Healthcare) was equilibrated with SPR running buffer. Surface-exposed carboxylic groups were activated by passing a mixture of EDC and NHS to yield reactive ester groups. 700-1500 RU on-ligand were immobilized on a flow cell, off-ligand was immobilized on another flow cell. Injection of ethanolamine after ligand immobilization removes non-covalently bound Ig binding protein. Upon ligand binding, protein analyte was accumulated on the surface increasing the refractive index. This change in the refractive index was measured in real time and plotted as response or resonance units (RU) versus time. The analytes were applied to the chip in serial dilutions with a suitable flow rate (µl/min). After each run, the chip surface was regenerated with regeneration buffer and equilibrated with running buffer. The control samples were applied to the matrix. Regeneration and re-equilibration were performed as previously mentioned. Binding studies were carried out by the use of the Biacore® 3000 (GE Healthcare) at 25° C.; data evaluation was operated via the BIAevaluation 3.0 software, provided by the manufacturer, by the use of the Langmuir 1:1 model (RI=0). Evaluated dissociation constants (KD) were standardized against off-target and KD values of different artificial Ig binding proteins for hIgG1-Fc (FIG. 2 and TABLE 6). For example, the KD of SEQ ID NO: 41 (CID208846) and SEQ ID NO: 42 (CID208847) is in single-digit µM range vs. hIgG1-Fc.

hIgG1-Fc [2] = target: T1, hIgG1-Fc; test: SPR (Biacore) on hIgG1-Fc, one concentration, 1 µM
From the text: Analysis via label-free interaction assays using SPR spectroscopy (BIAcore). Change in refractive index measured in real time and plotted as response or resonance unit [RU] versus time [sec]. […] Solid line = Ig binding protein SEQ ID NO: 41; dotted line = Ig binding protein SEQ ID NO: 42.
as §1, with “Binding studies were carried out by the use of the Biacore® 3000 (GE Healthcare) at 25° C.; data evaluation was operated via the BIAevaluation 3.0 software, provided by the manufacturer, by the use of the Langmuir 1:1 model (RI=0).” left out, “For example, the KD of SEQ ID NO: 41 (CID208846) and SEQ ID NO: 42 (CID208847) is in single-digit µM range vs. hIgG1-Fc.” left out

hIgG1-Fc [3] = target: T1, hIgG1-Fc; test: SPR, Biacore 3000
From the text: as §1

| Binder | Kd (hIgG1-Fc [1]) [µM] | further results |
| --- | --- | --- |
| B1 | 0.257 | – |
| B2 | 0.103 | – |
| B3 | – | binding result (hIgG1-Fc [2]): binds |
| B4 | 0.248 | – |
| B5 | – | binding result (hIgG1-Fc [3]): binds |
| B6 | 0.199 | – |
| B7 | 0.22 | – |
| B8 | – | binding result (hIgG1-Fc [3]): binds |
| B9 | 0.19 | – |
| B10 | 0.132 | – |
| B11 | – | binding result (hIgG1-Fc [3]): binds |
| B12 | – | binding result (hIgG1-Fc [3]): binds |
| B13 | 0.084 | – |
| B14 | 0.507 | – |
| B15 | – | binding result (hIgG1-Fc [2]): binds |
| B16 | 0.043 | – |
